Experimental data: the DeepSol protein solubility set

Assay: soluble on expression in E. coli; label from the status in PepcDB or PDB records

| Sequence | soluble on expression in E. coli |
| --- | --- |
| MDTALYLLPVTLGDTPIESVLPSYNKEIIQGIKHFIVEDVRSARRFLKKVDREIDIDSLTFYPLNKHTSPEDISGYLKPLAGGLSMGVISEAGCPAVADPGADVVAIAQRKNLKVVPLVGPSSIILSVMGSGFSGQSFAFHGYLPIEPGERAKKIKALEQRVYAEHQTQLFIETPYRNNKMVEDILHNCRPQTRLCIAANITCEGEYIRTKTIKEWQGKVPDLTKIPCIFLLYQLEHHHHHH | not soluble |
| MTSITPSIQFFAGIFEELSNVSLRREVRTGKRIVMMKFNQLQAIEGFNSFTKQSLNSLLLTDEEGEISVTPSATRFIFGGDEGDELQGVECKFEVERDDHWERFMRFMNRYAEANDMEYGERLEHHHHHH | soluble |
| MSNNTKRVGSQTIELKSKPRIIATYSVVGPREGQGPLKEYFDKILQDDCNGCESFEKAESSLMITAIEGVIKKGNVKEEDVDYLFSGDLLNQLTSTNFVAREFKIPFFGVYGACSTMAESLSLSSMIMDGDFAKYAIASTSSHFSSAERQFRFPLEYGCQRKEYSQWTVTGSGAMLLGKSGDYPYVTHVTTGIVKDYGIKDADNMGAAMAPAAVDTIYKHFVDTGRKPEDYDVIATGDLGAVGKKLTEELLKEYGYDISKVYIDCGEKIFDNEKQGTFAGGSGCGCSAVVACGYLYRMLKEKKLKRVLLVSTGALLSSTSALQGESIPGIAHAVAIEYILEHHHHHH | soluble |
| MSLAEVTVVNFGGANGDAQKAAFNKPFEAQTGNKVTAVEYNGEQAKIKAMVEAKHVNWDVVEVESGDIGRGCDEGLFEKLDWSKIAKKADLVPEAPHTCGVGFFVWSTALAYNADKLKAAPSGWADFWDVKKFPGKRGMRKGARYNLEFALMADGVPVKDVYKVLATKDGQNRAFKKLDQLKPYIQWWEAGAQPPQFLVAGDVVMSTAFNGRIDAAQREGKNLKVVWNGSIYDLDYWAIPKGTPNKALAEQYIAYTLSQKAQQEYAKHIAYGPANLAAIKALDAKTQANLPNSPENGKSAVLQNLQFWTDHGDELEQRFASWASKEGHHHHHH | soluble |
| MGSSHHHHHHGKTIFVIVPTNEEQVAFLEALAKQDELNFDWQNPPTEPGQPVVILIPSDMVEWFLEMLKAKGIPFTVYVEEGGSENLYFQGGGGGGSECNISADERMDVPSEDYDVSIMIKAIHEVQDVLTSRQFATFSEVDTEIGKTLKRYEAFGDGFERFHVNLTKDALQSNDLQKSLKDMDKRCQDRLRDCASSQKDQINDILPFIRNTSSILVHGSGNLLALTIACSIQEHEGVRFYICEGRPARKGYPHGSGEQLLEKVLATPEGMRLKDKLHKYCTIVPDSGVSSVMNSVDFVIMGAYCVTEHGGLVHSTGSLQIAIVAAFRNVPCYVLCETFKFAHIFPLSTDDLKQPENGAGEVVPLVEFVPPSMITLIFSEQGIMPPSAVADEMFRFHTAPSAPGKRR | not soluble |
| MAHHHHHHMADDEPEYREAANPIEAFIDCARYDEPGDAEALRTLLSNSPSFLNSQDEQGRTALHVAAANGRLKVLETLLGYNPTPDVPNNEGNTALHFAALNNQTAAARLLLRHGWRASARNAFNKTPIQLIYGKQFEDMELLLLGHDDELEQFSGQASQAARGPAVVNEATVQQQPAVEAERATNAEQPRVNPVQKEQESDPTTLLGSVGVDEIE | soluble |
| YHKLRLAIKEICKTDGIPNIKWGMYIAFGEKLLKSYLKMKAGSASSDMIAEYINNAISAFSSRTGISQETAQKIADFITSNY | soluble |
| MAHHHHHHMSLNAADAADERSRKEMDRFQVERMAGQGTFGTVQLGKEKSTGMSVAIKKVIQDPRFRNRELQIMQDLAVLHHPNIVQLQSYFYTLGERDRRDIYLNVVMEYVPDTLHRCCRNYYRRQVAPPPILIKVFLFQLIRSIGCLHLPSVNVCHRDIKPHNVLVNEADGTLKLCDFGSAKKLSPSEPNVAYICSRYYRAPELIFGNQHYTTSVDIWSVGCIFAEMMLGEPIFRGDNSAGQLHEIVRVLGCPSREVLRKLNPSHTDVDLYNSKGIPWSSVFCDHSLKDAKEAYDLLSALLQYLPEDRMKPYEALCHPYFDELHDSATKLPNNKDLPEDLFRFLPSEIEVMSEAQKAKLVRK | not soluble |
